In general, stoichiometry N refers to the number of molecules, sites or subunits per partner or assembly.

For the assay, the target named is TamL, FAD-dependent oxidase (flavoprotein) of the tirandamycin biosynthetic gene cluster (Streptomyces sp. 307-9). As to the kind of experiment: crystal structure.

“TamL, FAD-dependent oxidase (flavoprotein) of the tirandamycin biosynthetic gene cluster (enzyme)” displayed a stoichiometry N of 2.
